The values below are quoted from earlier work in publication PMC6530603.

As a reminder, the Kd is the equilibrium constant for the complex coming apart.

The target of the data set is VP30 CTD (Zaire ebolavirus) (UniProt Q77DJ5).

For the substance “Nucleoprotein NP C-terminal region peptide (from UniProt P18272)”, the Kd was 5.7 µM.
